Source: patent US20240301046A1 (MABWELL THERAPEUTICS, published 2024)
Like-named read-outs stand apart in the source and are kept apart here.

Experiments:
[1] = target: T1, HiLyte488 labelled Aβ1-42 protofibrils (UniProt P05067 672-713, HiLyte488 fluorophore on part of the peptides (labelled and unlabelled Aβ1-42 monomers mixed 1:5)); assay: cell-based or functional assay
[2] = target: T1, HiLyte488 labelled Aβ1-42 protofibrils; assay: cell-based or functional assay; remark: listed apart in the source
[3] = target: T1, HiLyte488 labelled Aβ1-42 protofibrils; assay: cell-based or functional assay; remark: listed apart in the source
[4] = target: T2, Aβ1-42 (rPeptide, A-1167-2) (UniProt P05067 672-713); assay: direct ELISA, coated Aβ1-42
T2 construct: domain: Aβ1-42; also called Abeta 1-42

[5] = target: T3, pyroglutamate-modified Aβ (Aβp3-42) (AnaSpec, AS-29907-01) (UniProt P05067 674-713, pyroglutamate at Aβ position 3 (the N-terminus)); assay: direct ELISA, coated Aβp3-42
T3 construct: domain: Aβp3-42; also called Abeta p3-42
Procedure: (§1) Direct ELISA was used to test each antibody's affinity for Aβ₁₋₄₂ and pyroglutamate-modified Aβ (Aβₚ₃₋₄₂). Plates were coated with 0.5 μM of Aβ₁₋₄₂ (rPeptide, A-1167-2) or Aβₚ₃₋₄₂ (AnaSpec, AS-29907-01) for 2 h at 4° C. Diluents of antibodies (3-fold serial dilutions with concentrations in the range of 0-100 nM) were added to the plate for 1 h at RT. Binding of antibody to immobilized Aβ on each plate was detected by HRP-labeled secondary antibody and TMB substrate, as described in Example 2.

[6] = target: T2, Aβ1-42 (rPeptide, A-1167-2); assay: direct ELISA, coated Aβ1-42; remark: listed apart in the source
Procedure: as §1

[7] = target: T2, Aβ1-42 (rPeptide, A-1167-2); assay: direct ELISA, coated Aβ1-42; remark: listed apart in the source
[8] = target: T2, Aβ1-42 (rPeptide, A-1167-2); assay: direct ELISA, coated Aβ1-42; remark: listed apart in the source
[9] = target: T3, pyroglutamate-modified Aβ (Aβp3-42) …; assay: direct ELISA, coated Aβp3-42; remark: listed apart in the source
[10] = target: T3, pyroglutamate-modified Aβ (Aβp3-42) …; assay: direct ELISA, coated Aβp3-42; remark: listed apart in the source
Procedure: After 3 washes with 1× Phosphate-Buffered Saline, 0.1% Tween 20 (PBST), each plate was blocked with 1% BSA in PBS for 1 h at room temperature (RT). Diluents of Aβ antibodies (3-fold serial dilutions with concentrations in the range of 0-100 nM) were added to plates. The plate was incubated for 1 h at RT and washed 3 times. The plate was then incubated with HRP conjugated goat anti-mouse IgG (Thermo Fisher Scientific, G-21040; thermofisher.com) 1:5000 diluted in 1% BSA for 1 h at RT and washed 3 times. TMB (3,3′,5,5;-tetramethylbenzidine) Stabilized Chromogen substrate solution (Life Technologies (Thermo Fisher Scientific) SB02) was added to the plate, and the reaction was stopped by adding 1M sulfuric acid. The absorbance at 450 nm was measured in a plate reader.
as §1

[11] = target: T4, biotin-labelled Aβ1-40 monomer (AnaSpec, AS-61483-01) (UniProt P05067 672-711, biotin label, position not stated); assay: capture ELISA, coated antibody, biotin-Aβ1-40 monomer
T4 construct: domain: Aβ1-40; also called biotin-conjugated Aβ40 monomer; biotin-Aβ monomer
Procedure: (§2) A 96-well plate was coated with 5 μg/mL of antibodies overnight at RT. The plate was then treated with diluents of biotin-labelled Aβ₁₋₄₀ monomers (AnaSpec, AS-61483-01, 4-fold serial dilutions with concentrations in the range of 0-1000 nM) for 1 h at RT. The binding of biotin-labelled Aβ₁₋₄₀ monomers with immobilized antibody was detected by HRP-conjugated streptavidin and TMB, as described in Example 2.

[12] = target: T4, biotin-labelled Aβ1-40 monomer …; assay: as above; remark: listed apart in the source
[13] = target: T4, biotin-labelled Aβ1-40 monomer …; assay: as above; remark: listed apart in the source
Procedure: The plate was incubated for 1 h at RT and washed 3 times with PBST. The plate was then incubated with HRP-conjugated streptavidin (Thermo Fisher Scientific, SNN2004) at 1:5000 diluted in 1% BSA for 20 min at RT and washed 3 times. TMB Stabilized Chromogen substrate solution (Life Technologies, SB02) was added to the plate, and the reaction was stopped by adding 1M sulfuric acid. The absorbance at 450 nm was measured in a plate reader.
as §2

Aβ1-42 protofibril = target: T5, Aβ1-42 protofibril (UniProt P05067 672-713); assay: ratio of competitive ELISA IC50s, monomer as reference
T5 construct: domain: Aβ1-42; soluble multimer of Aβ1-42; also called Aβ protofibril; Aβ protofibrils
Source text: The binding was detected by HRP-labeled secondary antibody and TMB substrate, as described in Example 2.

| Binder | relative ADCP [1] | ADCP (RFU) [2] | ADCP (RFU) [3] | EC50 [4] | EC50 [5] | EC50 [6] | EC50 [7] | EC50 [8] | EC50 [9] | EC50 [10] | EC50 [11] | EC50 [12] | EC50 [13] | ratio of IC50 monomer to IC50 protofibril (Aβ1-42 protofibril) |
| --- | --- | --- | --- | --- | --- | --- | --- | --- | --- | --- | --- | --- | --- | --- |
| 17P04A (mIgG1) (antibody, V domains shown, chimeric: fully human F(ab')2, mouse IgG1 CH2-CH3; also called 17P64A; 17P4A) VH: EVQLVESGGGLVKPGGSLRLSCAASGFTLSSFSMNWVRQAPGKGLEWVSSISSRRTYIYYADSAKGRFTFSRDNAKNSLYLQMNSLRAEDSAVYYCARGGYIGSPNAYDIWGQGTMVTVSS VL: QTVVTQEPSLTVSPGGTVTLTCASSTGAVTSDYYPNWFQQKPGQAPRALIYSASTKHSWTPARFSGSLLGGKAALTLSGVQPEDEADYYCLLYYGGAWVFGGGTKLTVL | 0.79 relative to ADCP response of rfmAb-1 | 284000 RFU | 328000 RFU | < 0.1 nM | > 50 nM | 0.045 nM | 0.045 nM | 0.045 nM | 203 nM | 203 nM | 35.2 nM | 35.2 nM | 35.2 nM |  |
| 18P01A (mIgG1) (antibody, V domains shown, chimeric: fully human F(ab')2 (human VH, VL, CH1, CL), mouse IgG1 CH2-CH3; also called Chimeric mouse 18P01A (mlgG1); Original 18P01A (mlgG1)) VH: EVQLVESGGGLVQPGGSLKLSCAVSGFTFSGSAMHWVRQASGKGLEWVGRIRSKANSYATAYAASVKGRFTISRDDSKNTAFLQMNSLKTEDTAVYYCTSHAPNFDAFDIWGQGTMVTVSS VL: QSVLTQPPSVSAAPGQKVTISCSGSSSNIGNHYVSWYQQLPGTAPKFFIYDNSKRPSGIPDRFSGSKSGTSATLGITGLQTGDEADYYCGTWDSSLSTYVFGTGTKVTVL | 1.36 relative to ADCP response of rfmAb-1 | 480000 RFU | 673000 RFU | < 0.1 nM | > 50 nM | 0.062 nM | 0.062 nM | 0.062 nM | 57.6 nM | 57.6 nM | 67 nM | 67 nM | 67 nM |  |
| 20O07A (mIgG1) (antibody, V domains shown, chimeric: fully human F(ab')2, mouse IgG1 CH2-CH3; also called Chimeric mouse 20O07A (mlgG1)) VH: EVQLVESGGGLVQPGGSLKLSCAVSGFTFSGSAIHWVRQASGKGLEWVGRIRSKVNSYATVYAASVKGRFTISRDDSKNTAFLQMNSLKTEDTAVYYCTSHAPIFDAFDIWGQGTMVTVSS VL: QSVLTQPPSVSAAPGQKVTISCSGSSSNIGNHYVSWYQQLPGTAPKFLIYDNSKRPSGIPDRFSGSKSGTSATLGITGLQTGDEADYYCGTWDSSLSTYFFGTGTKVTVL | 1.05 relative to ADCP response of rfmAb-1 | 334000 RFU |  | < 0.1 nM | > 50 nM | 0.05 nM | 0.05 nM |  | 336 nM |  | 2.57 nM | 2.57 nM |  | > 300 fold |
